Reference: patent US20140186344A1 (TRUSTEES OF BOSTON UNIVERSITY, published 2014)
Numbering of substitutions follows the chain as printed. No end group written: not given here. *: point of attachment. 125I = [125I]*

Experiments:
[1] = target: T1, Dahl S Dear S44/M74 variant (rat Dual Endothelin-1/Angiotensin II Receptor) (rat (Dahl S/JRHsd), UniProt D3ZGZ6 1-127); assay: saturation radioligand binding, Cos1 membranes; KL, low affinity binding site; the column head says nM, and the unit is doubtful
T1 construct: It was assayed as membranes of transiently transfected Cos1 cells, and as rat kidney membranes on blots; also called Dahl S receptor; Cos1-S
T1 chain: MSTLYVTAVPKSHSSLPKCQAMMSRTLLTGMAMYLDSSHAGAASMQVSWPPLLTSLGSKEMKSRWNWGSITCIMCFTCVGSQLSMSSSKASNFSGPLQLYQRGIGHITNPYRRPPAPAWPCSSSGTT
Experimental: (§1) Binding of [¹²⁵I]Tyr⁴-angiotensin II and [¹²⁵I]Tyr¹³-endothelin-1 to COS-1 membranes was performed by a rapid filtration method (32, 50). Briefly, [¹²⁵I]Tyr⁴-angiotensin II (0.25˜6.5 nM) or [¹²⁵I]Tyr¹³-endothelin-1 (0.045˜1.46 nM) was incubated with membranes (100 μg) for 20 min at 37° C. in 100 μl buffer A (5 mM MgCl₂, 0.2 mM EDTA, 10 mg/ml BSA, 10 mM Hepes, pH7.4). Binding reactions were terminated by the addition of 1 ml ice-cold buffer A and immediately filtered through a Whatman GF/C filter (presoaked overnight at 4° C. in 10 mg/ml BSA) and subsequently washed with 15 ml ice-cold buffer A. Specific binding was determined as the difference between the total radioactivity bound to membranes and the radioactivity bound to blanks containing 1 μM AngII or 1 μM ET-1. The dissociation constant (Kd) and maximum ligand-binding sites (Bₘₐₓ) were determined using Hill plot analysis (55). Hill coefficient values (h) were calculated from the relationship ln [B/(Bₘₐₓ−B)]=h ln [free Radioligand]−ln Kd. […] The data were best fit by two affinity states determined by Scatchard plot analysis; KH and KL designate the Kd for high- and low-affinity states of the receptor, respectively (44). Most results are expressed as the mean±SE (standard error) from three to five independent experiments.

[2] = target: T2, Dahl R Dear S44P/M74T variant (rat Dual Endothelin-1/Angiotensin II Receptor) (rat (Dahl R/JRHsd), UniProt D3ZGZ6 1-127); assay: as above
T2 construct: It was assayed as membranes of transfected Cos1 cells and as kidney membranes on blots; also called Dahl R receptor; Cos1-R
T2 chain: T1 chain with S44P, M74T
Experimental: as §1

[3] = target: T3, mouse Dear (Dual Endothelin-1/Angiotensin II Receptor) (mouse, UniProt Q2QKR2 1-127); assay: 125I-ET-1 binding to membranes of Cos-1 cells expressing mouse Dear
T3 construct: Endogenous protein in mouse kidney membranes and embryos was used for the antibody work; also called mouse receptor polypeptide; mouse Dear polypeptide
T3 sequence: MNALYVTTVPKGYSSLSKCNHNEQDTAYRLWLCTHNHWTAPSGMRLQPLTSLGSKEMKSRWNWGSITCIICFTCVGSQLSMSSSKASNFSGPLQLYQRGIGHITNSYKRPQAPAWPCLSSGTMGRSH

[4] = target: T1, Dahl S Dear S44/M74 variant (rat Dual …); assay: saturation radioligand binding, Cos1 membranes; KH, high affinity binding site; the column head says nM but paragraph 132 gives this value in pM
Experimental: as §1

[5] = target: T2, Dahl R Dear S44P/M74T variant (rat Dual …); assay: as above
Experimental: as §1

[6] = target: T1, Dahl S Dear S44/M74 variant (rat Dual …); assay: saturation radioligand binding, Cos1 membranes; comparison of KH
Experimental: as §1

B1: [125I]Tyr13-endothelin-1 (peptide, UniProt P05305 53-73, looked up)
peptide: CSCSSLMDKECVY(125I)FCHLDIIW
modifications: ends and bridges not checked
notes: mature; Radiolabelled ligand; also called ET-1
B1 was tested, and the Kd [1] was 0.45 nM, the Kd [2] was 0.836 nM and the binding result [3] was “binds”. The Kd [4] was 0.00442 nM, the Kd [5] was 0.012 nM and the “fold increased affinity compared to the Dahl R Dear S44P/M74T variant” value [6] was 3 fold.
